± gives the uncertainty stated by the source.
B1: POU domain, class 3, transcription factor 2, residues 262 to 338; numbered along this chain, P20265 (parent)
chain: EDTPTSDDLEQFAKQFKQRRIKLGFTQADVGLALGTLYGNVFSQTTICRFEALQLSFKNMCKLKPLLNKWLEEADSS

Variants of: B1
Assay: abundance fitness (aPCA) (normalised: wild type 0, dead -1); higher = more abundant; growth selection in yeast, the domain comes from the species named
Details: Homo sapiens

Row | Variant | abundance fitness
1 | Q15W | -0.033 ± 0.034
2 | Q15E | 0.018 ± 0.038
3 | Q15G | -0.141 ± 0.027
4 | Q15A | -0.124 ± 0.034
5 | Q15M | 0.051 ± 0.042
6 | Q15D | -0.008 ± 0.068
7 | Q15P | -1.08 ± 0.23
8 | Q15Y | 0.092 ± 0.076
9 | Q15R | -0.035 ± 0.027
10 | Q15S | 0.013 ± 0.036
11 | Q15I | -0.068 ± 0.15
12 | Q15F | -0.187 ± 0.13
13 | Q15C | -0.147 ± 0.059
14 | Q15T | -0.038 ± 0.045
15 | Q15K | -0.003 ± 0.046
16 | Q15L | -0.067 ± 0.039
17 | Q15N | 0.063 ± 0.11
18 | Q15H | 0.042 ± 0.1
19 | K17S | -0.279 ± 0.035
20 | K17E | -0.39 ± 0.035
21 | K17N | -0.895 ± 0.22
22 | K17I | -0.349 ± 0.072
23 | K17T | -0.192 ± 0.036
24 | K17W | -0.832 ± 0.064

Row | Variant | abundance fitness
25 | K17C | -0.442 ± 0.061
26 | K17F | -0.9 ± 0.2
27 | K17M | -0.171 ± 0.041
28 | K17P | -0.658 ± 0.087
29 | K17D | -0.949 ± 0.12
30 | K17L | -0.597 ± 0.044
31 | K17R | -0.05 ± 0.023
32 | K17Q | -0.025 ± 0.039
33 | K17V | -0.316 ± 0.029
34 | K17G | -0.6 ± 0.029
35 | K17H | -0.343 ± 0.067
36 | I21Q | 0.005 ± 0.04
37 | I21K | -0.112 ± 0.058
38 | I21N | -0.311 ± 0.075
39 | I21P | -0.805 ± 0.12
40 | I21L | -0.015 ± 0.03
41 | I21H | -0.267 ± 0.08
42 | I21C | -0.204 ± 0.05
43 | I21Y | -0.489 ± 0.088
44 | I21V | -0.058 ± 0.031
45 | I21T | -0.179 ± 0.053
46 | I21M | 0.01 ± 0.039
47 | I21E | -0.004 ± 0.037
48 | I21S | -0.337 ± 0.04

Row | Variant | abundance fitness
49 | I21R | -0.195 ± 0.029
50 | I21A | -0.236 ± 0.037
51 | I21D | -0.567 ± 0.094
52 | Q18Y | -0.295 ± 0.17
53 | Q18R | -0.077 ± 0.032
54 | Q18D | -0.068 ± 0.061
55 | Q18N | -0.292 ± 0.22
56 | Q18I | -0.223 ± 0.12
57 | Q18M | -0.089 ± 0.045
58 | Q18K | 0.024 ± 0.062
59 | Q18C | -0.157 ± 0.044
60 | Q18S | -0.018 ± 0.037
61 | Q18L | -0.13 ± 0.037
62 | Q18G | -0.273 ± 0.031
63 | Q18P | -1.21 ± 0.36
64 | Q18T | -0.029 ± 0.051
65 | Q18H | -0.193 ± 0.093
66 | Q18V | -0.145 ± 0.036
67 | K14S | -0.073 ± 0.051
68 | K14C | -0.136 ± 0.11
69 | K14F | -0.337 ± 0.21
70 | K14I | -0.267 ± 0.23
71 | K14L | -0.058 ± 0.053
72 | K14G | -0.251 ± 0.057

Row | Variant | abundance fitness
73 | K14D | -0.012 ± 0.2
74 | K14A | -0.008 ± 0.05
75 | K14E | 0.018 ± 0.081
76 | K14R | -0.077 ± 0.064
77 | K14W | -0.182 ± 0.082
78 | K14M | -0.082 ± 0.093
79 | K14V | -0.134 ± 0.054
80 | K14Q | 0.075 ± 0.098
81 | K14T | -0.121 ± 0.087
82 | R19P | -0.961 ± 0.17
83 | R19G | -0.308 ± 0.034
84 | R19Y | -0.695 ± 0.33
85 | R19H | -0.047 ± 0.067
86 | R19V | -0.194 ± 0.033
87 | R19I | -0.196 ± 0.073
88 | R19K | 0.035 ± 0.051
89 | R19M | -0.1 ± 0.049
90 | R19Q | -0.113 ± 0.048
91 | R19T | -0.049 ± 0.047
92 | R19E | -0.116 ± 0.039
93 | R19F | -0.439 ± 0.09
94 | R19D | -0.334 ± 0.11
95 | R19S | -0.187 ± 0.039
96 | R19C | -0.162 ± 0.054

Row | Variant | abundance fitness
97 | R19A | -0.057 ± 0.036
98 | R19W | -0.379 ± 0.043
99 | R19N | -0.182 ± 0.095
100 | A13M | -0.259 ± 0.11
101 | A13V | -0.044 ± 0.034
102 | A13L | -0.759 ± 0.082
103 | A13N | -1.07 ± 0.28
104 | A13T | -0.255 ± 0.053
105 | A13S | -0.274 ± 0.041
106 | A13W | -0.913 ± 0.14
107 | A13Q | -0.73 ± 0.12
108 | A13P | -0.731 ± 0.083
109 | A13Y | -0.845 ± 0.17
110 | K22P | -0.958 ± 0.18
111 | K22S | -0.131 ± 0.041
112 | K22V | -0.298 ± 0.033
113 | K22C | -0.042 ± 0.057
114 | K22D | 0.041 ± 0.047
115 | K22R | -0.054 ± 0.029
116 | K22L | -0.04 ± 0.035
117 | K22I | -0.273 ± 0.068
118 | K22F | -0.096 ± 0.064
119 | K22H | -0.168 ± 0.064
120 | K22N | -0.117 ± 0.077

Row | Variant | abundance fitness
121 | K22T | -0.143 ± 0.05
122 | K22E | 0.057 ± 0.035
123 | K22A | 0.009 ± 0.03
124 | K22M | -0.073 ± 0.046
125 | K22Q | -0.028 ± 0.043
126 | K22Y | -0.3 ± 0.093
127 | F16H | -0.91 ± 0.19
128 | F16M | -0.606 ± 0.063
129 | F16Y | -0.767 ± 0.15
130 | F16L | -0.477 ± 0.035
131 | F16R | -0.69 ± 0.04
132 | F16K | -0.633 ± 0.079
133 | F16N | -0.704 ± 0.13
134 | F16W | -0.595 ± 0.047
135 | F16E | -0.618 ± 0.058
136 | F16S | -0.802 ± 0.059
137 | F16D | -0.854 ± 0.1
138 | F16T | -0.677 ± 0.057
139 | F16Q | -0.647 ± 0.088
140 | F16A | -0.656 ± 0.045
141 | F16G | -0.818 ± 0.044
142 | F16V | -0.671 ± 0.042
143 | F16I | -0.753 ± 0.13
144 | F16P | -0.733 ± 0.081

Row | Variant | abundance fitness
145 | F16C | -0.765 ± 0.076
146 | R20E | -0.712 ± 0.079
147 | R20Y | -0.63 ± 0.17
148 | R20F | -1.03 ± 0.41
149 | R20V | -0.728 ± 0.059
150 | R20Q | -0.87 ± 0.16
151 | R20M | -1.29 ± 0.3
152 | R20H | -1.02 ± 0.3
153 | R20K | -1.25 ± 0.35
154 | R20W | -0.909 ± 0.096
155 | R20T | -1.13 ± 0.19
156 | R20S | -0.694 ± 0.084
157 | R20N | -1.09 ± 0.4
158 | R20L | -0.766 ± 0.066
159 | R20C | -1.01 ± 0.18
160 | R20G | -0.938 ± 0.065
161 | R20A | -1.05 ± 0.1
162 | R20I | -0.794 ± 0.31
163 | R20D | -1.05 ± 0.24
164 | L23A | -0.188 ± 0.033
165 | L23C | -0.313 ± 0.053
166 | L23E | -0.578 ± 0.061
167 | L23D | -0.733 ± 0.091
